Results on 19 molecules are retold here after patent publication US20240150440A1 (LUMEN BIOSCIENCE, published 2024).

Where “and” joins values, the source holds several entries; their conditions need not be identical. Identical values can stand only once.

Test [1] concerns the target T1, SARS-CoV-2 spike protein on pseudotyped lentivirus (Wuhan Reference Pseudovirus) (SARS-CoV-2, UniProt P0DTC2 14-1273). Nature of the test: cell-based or functional assay.
Test [2] has as its target T1, SARS-CoV-2 spike protein on pseudotyped …. Nature of the test: cell-based or functional assay. This is another data set of the same source.
For test [3] the target is unchanged. Nature of the test: cell-based or functional assay. The source holds these as a separate data set.
The target is the same in test [4]. Nature of the test: cell-based or functional assay. The source holds these as a separate data set.
Test [5] concerns the target SARS-CoV-2 Gamma Variant spike protein on pseudotyped lentivirus (SARS-CoV-2 Gamma variant). Nature of the test: cell-based or functional assay.
Test [6] concerns the target T2, SARS-CoV-2 Beta Variant RBD (SARS-CoV-2 Beta variant).
T2 construct: domain: RBD; coated on ELISA plates
Nature of the test: ELISA, RBD coated. For orientation: In an ELISA, binding on a coated surface is turned into a signal by an enzyme label.

Test [7] deals with T3, SARS-CoV-2 Gamma Variant RBD (SARS-CoV-2 Gamma variant).
T3 construct: domain: RBD; coated on ELISA plates
Nature of the test: ELISA, RBD coated.

Test [8] deals with T4, SARS-CoV-2 Delta Variant RBD (SARS-CoV-2 Delta variant).
T4 construct: domain: RBD; coated on ELISA plates
Nature of the test: ELISA, RBD coated.

Test [9] concerns the target T5, SARS-CoV-2 Alpha Variant RBD (SARS-CoV-2 Alpha variant).
T5 construct: domain: RBD; coated on ELISA plates
Nature of the test: ELISA, RBD coated.

B1: PP1133 MBP-4B0F-PAPA-R2d-A6-H6 (VHH)
VHH: QVQLVESGGGLVQPGGSLRLSCAASGSGASIGAMHWFRQAPGKGREWVASITSAGNTYYGDSVKGRFTISRDNAKNTVYLQMNSLKPEDTAVYYCNALAGANYESQWEEYNYWGQGTQVTVSS
notes: Form: Heptamer
As to B1, the “infectivity % under 10 ug/mL VHH treatment” value (“infectivity %” below) in test [1] was found to be 48.1%. In addition, the “Pseudovirus inhibition IC50 [Cont. 1]” value in test [2] is 180 nM. Besides, the “Pseudovirus neutralization IC50” value in test [3] was 186 nM.

B2: PP1157 MPB-scTRP-PAPA-R2d-A6-H6 (VHH)
VHH: QVQLVESGGGLVQPGGSLRLSCAASGSGASIGAMHWFRQAPGKGREWVASITSAGNTYYGDSVKGRFTISRDNAKNTVYLQMNSLKPEDTAVYYCNALAGANYESQWEEYNYWGQGTQVTVSS
notes: Form: Trimer
B2: the “infectivity %” value in [1] worked out at 32.9%. The “Pseudovirus inhibition IC50 [Cont. 1]” value in test [2] was 54.4 nM. Also, in test [3], the “Pseudovirus neutralization IC50” value is 18.9 nM and 19.8 nM.

B3: PP1144 MBP-5HVZ-PAPA-R2c-F6-H6 (VHH)
VHH: QVQLVESGGGLVQPGGSLRLSCAASGRILAANIVHWYRQAPGKEREGVAGITTGGSNYYSDSVKGRFTISRDNAKNTVYLQMNSLKPEDTAVYYCNALGLGSASGSYESWGQGTQVTVSS
notes: Form: Dimer
As to B3, in test [1], the “infectivity %” value stood at 9.18%. In test [2], the “Pseudovirus inhibition IC50 [Cont. 1]” value worked out at 2.75 nM. Besides, the “Pseudovirus neutralization IC50” value in test [3] is 11.9 nM.

B4: PP1132 MBP-4B0F-PAPA-R2c-F6-H6 (VHH)
VHH: QVQLVESGGGLVQPGGSLRLSCAASGRILAANIVHWYRQAPGKEREGVAGITTGGSNYYSDSVKGRFTISRDNAKNTVYLQMNSLKPEDTAVYYCNALGLGSASGSYESWGQGTQVTVSS
notes: Form: Heptamer
With B4, in test [1], the “infectivity %” value turned out to be 2.65%. Besides, the “Pseudovirus inhibition IC50 [Cont. 1]” value in test [2] turned out to be 5.66 nM. In addition, the “Pseudovirus neutralization IC50” value in [3] amounted to 4.14 nM.

B5: PP1156 MPB-scTRP-PAPA-R2c-F6-H6 (VHH)
VHH: QVQLVESGGGLVQPGGSLRLSCAASGRILAANIVHWYRQAPGKEREGVAGITTGGSNYYSDSVKGRFTISRDNAKNTVYLQMNSLKPEDTAVYYCNALGLGSASGSYESWGQGTQVTVSS
notes: Form: Trimer
As to B5, the “infectivity %” value in test [1] turned out to be 18.1%. Besides, in [2], the “Pseudovirus inhibition IC50 [Cont. 1]” value is 63.8 nM. Further, the “Pseudovirus neutralization IC50” value in test [3] came to 36.8 nM.

B6: PP1135 MBP-4B0F-PAPA-R5a-B7-H6 (VHH)
VHH: QVQLVESGGGLVQPGGSLRLSCAASGAFFSYGAIHWFRQAPGKQREEVAAITSGGSTGYADSVKGRFTISRDNAKNTVYLQMNSLKPEDTAVYYCNAGVVWLPSNAAYNLWGQGTQVTVSS
notes: Form: Heptamer
For B6, the “infectivity %” value in test [1] is -0.03%. Also, the “Pseudovirus inhibition IC50 [Cont. 6]” value in test [4] came to 2.13 nM. In addition, the “Pseudovirus neutralization IC50” value in test [3] came out at 0.533 nM.

B7: PP1159 MPB-scTRP-PAPA-R5a-B7-H6 (VHH)
VHH: QVQLVESGGGLVQPGGSLRLSCAASGAFFSYGAIHWFRQAPGKQREEVAAITSGGSTGYADSVKGRFTISRDNAKNTVYLQMNSLKPEDTAVYYCNAGVVWLPSNAAYNLWGQGTQVTVSS
notes: Form: Trimer
With B7, in test [1], the “infectivity %” value amounted to 17.7%. In test [4], the “Pseudovirus inhibition IC50 (second row with the same construct name) [Cont. 6]” value was 215 nM and the “Pseudovirus inhibition IC50 [Cont. 6]” value came to 7.98 nM. Also, in test [3], the “Pseudovirus neutralization IC50” value was 31.9 nM.

B8: PP908 MBP-5HVZ-S2a-C4-H6 (VHH)
VHH: QVQLVESGGGLVQPGGSLRLSCAASGFSESINATAWFRQAPGKQREGVAGLDGGGSDYYSDSVKGRFTISRDNAKNTVYLQMNSLKPEDTAVYYCAAQLTSSFRGYDFTPSNYDYWGQGTQVTVSS
notes: Form: Dimer
Turning to B8, the “infectivity %” value in test [1] was determined as 47.5%. The “Pseudovirus neutralization IC50” value in [3] was 1620 nM; in [5] it was 63.1 nM. Besides, the EC50 – broadly, the concentration that produces a half-maximal response – in [6] was 7.42 nM; in [7] it was 3.75 nM; in [8], 2.15 nM; in test [9] it was 1.74 nM.

B9: PP1106 MBP-5HVZ-PAPA-RN-21-H6 (VHH)
VHH: QVQLVESGGGLVQPGGSLRLSCAASGLQTSDNAMHWFRQAPGKNRELVAGLTSGTSRNYGDSVKGRFTISRDNAKNTVYLQMNSLKPEDTAVYYCAAFPDVGDASSIGFVYWGQGTQVTVSS
notes: Form: Dimer
Turning to B9, the “infectivity %” value in test [1] came to 76.6%. Besides, in test [5], the “Pseudovirus neutralization IC50” value came to 63.4 nM. The EC50 in test [6] was determined as 3.17 nM; in [7], 7.84 nM; in [9] it was 2.05 nM.

B10: PP934 MBP-5HVZ-S3a-H2-H6 (VHH)
VHH: QVQLVESGGGLVQPGGSLRLSCAASGAAFSKNALHWFRQAPGKGREWVASITSGSGTQYMDSVKGRFTISRDNAKNTVYLQMNSLKPEDTAVYYCAALAYSGGYDYWGQGTQVTVSS
notes: Form: Dimer
On to B10, for which the “Pseudovirus neutralization IC50” value in test [5] stood at 46300 nM. Further, the EC50 stood at 13.5 nM in test [6], 4.78 nM in [7] and 1.56 nM in [9].

B11: PP899 MBP-5HVZ-R5a-B5-H6 (VHH)
VHH: QVQLVESGGGLVQPGGSLRLSCAASGDDFIENAISWYRQAPGKGREWVAAVTLGGHSNYADSVKGRFTISRDNAKNTVYLQMNSLKPEDTAVYYCNYPVGIPAVAIDGRRSYGYWGQGTQVTVSS
notes: Form: Dimer
For B11, the “infectivity %” value in [1] amounted to 2.43%. In test [4], the “Pseudovirus inhibition IC50 [Cont. 6]” value is 5.25 nM. Also, in test [3], the “Pseudovirus neutralization IC50” value was 2.29 nM.

B12: PP1153 MBP-5HVZ-PAPA-R5d-D4-H6 (VHH)
VHH: QVQLVESGGGLVQPGGSLRLSCAASGSDFTINAMHWFRQAPGKQREFVATITSTSSTAYRDSVKGRFTISRDNAKNTVYLQMNSLKPEDTAVYYCAAFAVRDADTAGWTARDYWGQGTQVTVSS
notes: Form: Dimer
Take B12: in test [1], the “infectivity %” value amounted to 81.7%. Further, the “Pseudovirus neutralization IC50” value in test [5] came to 62.9 nM. For the same molecule, the figures for the EC50 in test [8] and in test [9] were 223 nM and 0.91 nM, respectively.

B13: PP900 MBP-5HVZ-R5a-F2-H6 (VHH)
VHH: QVQLVESGGGLVQPGGSLRLSCAASGSISSIEAMSWFRQAPGKQREGVATMASGGDTSYADSVKGRFTISRDNAKNTVYLQMNSLKPEDTAVYYCAAQTYRPDTWGRYTFWGQGTQVTVSS
notes: Form: Dimer
Take B13: the “infectivity %” value in test [1] stood at 18.3%. Besides, in test [4], the “Pseudovirus inhibition IC50 [Cont. 6]” value was 59.3 nM. Moreover, the “Pseudovirus neutralization IC50” value in [3] amounted to 29.6 nM. Also, the EC50 in [6] worked out at 709 nM; in test [7], 340 nM; in [9] it was 34 nM.

B14: PP1102 MBP-5HVZ-PAPA-RN-17-H6 (VHH)
VHH: QVQLVESGGGLVQPGGSLRLSCAASGSMYSRAVMHWFRQAPGKEREGVASIGRTGDSYYADSVKGRFTISRDNAKNTVYLQMNSLKPEDTAVYYCAADNLDVVYGNRYWGQGTQVTVSS
notes: Form: Dimer
Turning to B14, the “infectivity %” value in test [1] was determined as 40.9%. In addition, the entries for the “Pseudovirus neutralization IC50” value in test [3] and in [5] were approximately 5110 nM and 21.5 nM, respectively. In addition, the EC50 in test [6] was 2 nM; in test [7] it was 1.26 nM; in [9], 1.55 nM.

B15: PP1134 MBP-4B0F-PAPA-R2d-D3-H6 (VHH)
VHH: QVQLVESGGGLVQPGGSLRLSCAASGHIFSINNAAWVRQAPGKSREGVATIHSGGGTYYSDSVKGRFTISRDNAKNTVYLQMNSLKPEDTAVYYCNAEVSTGAGSRGRVSDVYWGQGTQVTVSS
notes: Form: Heptamer
Regarding B15, in [1], the “infectivity %” value was 10.9%. Further, the “Pseudovirus inhibition IC50 [Cont. 1]” value in test [2] was 5.99 nM. The “Pseudovirus neutralization IC50” value in test [3] was 3.97 nM.

B16: PP1181 R2d-D3-PP7-H6 (VHH)
VHH: QVQLVESGGGLVQPGGSLRLSCAASGHIFSINNAAWVRQAPGKSREGVATIHSGGGTYYSDSVKGRFTISRDNAKNTVYLQMNSLKPEDTAVYYCNAEVSTGAGSRGRVSDVYWGQGTQVTVSS
For the molecule B16, the “infectivity %” value in [1] was determined as 1.57%. The “Pseudovirus inhibition IC50 [Cont. 1]” value in test [2] was found to be 5.61 nM. The “Pseudovirus neutralization IC50” value in [3] was determined as 6.95 nM.

B17: PP1158 MPB-scTRP-PAPA-R2d-D3-H6 (VHH)
VHH: QVQLVESGGGLVQPGGSLRLSCAASGHIFSINNAAWVRQAPGKSREGVATIHSGGGTYYSDSVKGRFTISRDNAKNTVYLQMNSLKPEDTAVYYCNAEVSTGAGSRGRVSDVYWGQGTQVTVSS
notes: Form: Trimer
Regarding B17, the “infectivity %” value in [1] was determined as 28.8%. In addition, the “Pseudovirus inhibition IC50 [Cont. 1]” value in test [2] was 123 nM. For the same molecule, in test [3], the “Pseudovirus neutralization IC50” value worked out at 27.4 nM.

B18: PP1154 MBP-5HVZ-PAPA-R5d-G1-H6 (VHH)
VHH: QVQLVESGGGLVQPGGSLRLSCAASGSIFGINDVHWFRQAPGKEREFVATITNGLSARYKDSVKGRFTISRDNAKNTVYLQMNSLKPEDTAVYYCAAQVYITTYELYDYWGQGTQVTVSS
notes: Form: Dimer
Consider B18, for which, in [1], the “infectivity %” value is 53.2%. Also, the “Pseudovirus neutralization IC50” value in test [3] came to 272 nM. The EC50 in test [6] turned out to be 24.7 nM; in [7] it was 15.8 nM; in test [8] it was 221 nM; in test [9], 2.37 nM.

B19: PP903 MBP-5HVZ-R1i-A11-H6 (VHH)
VHH: QVQLVESGGGLVQPGGSLRLSCAASGSILQINAIHWFRQAPGKQREEVAAITSGGSTGYADSVKGRFTISRDNAKNTVYLQMNSLKPEDTAVYYCAATSTRGGLDSDYWGQGTQVTVSS
notes: Form: Dimer
On to B19, for which the “infectivity %” value in test [1] was found to be 38.4%. In addition, in test [4], the “Pseudovirus inhibition IC50 [Cont. 6]” value was 50.4 nM. Further, the “Pseudovirus neutralization IC50” value in [3] stood at 56.7 nM. Besides, the EC50 in test [8] was found to be 0.26 nM; in [9], 0.28 nM.
